According to the nanobody polyreactivity screen of Harvey et al. (2022):

Test: yeast display, Sf9 membrane polyspecificity reagent, FACS + sequencing; frameworks hold sequencing errors
Outline: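 Nanobodies came from a synthetic yeast display library in Saccharomyces cerevisiae BJ5465, induced with galactose for 36–48 hours and stained for 1 hour at 4 °C with 10% biotinylated, detergent-solubilized Sf9 membrane reagent. Cells were enriched on streptavidin microbeads and then FACS-sorted, with low and high (top ~1%) gates set on anti-HA fluorescence for expression and streptavidin fluorescence for reagent binding. Each polyreactivity label reflects the gate a clone came from. Genes were amplified by colony PCR, sequenced by MiSeq 2 × 250 and filtered by CDR length.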
In the case of “QVQLEESGGRLVQAGCSLRLSCAASGRTFDYYAMGWYRQAPGKEWELVAAITASGGSTFYADSVKGRFTISRDNAKNTVYLQMYSMKPEDTAVYYCAGRYTWRYFIKYGYWGQGTQVTVSS”, the “polyreactivity (PSR sort gate)” value is reported as “high polyreactivity”. With “QVQLVESGGGLVQAGGSLRLSCAASGSIFPWYTMGWYRQAPGKEREFVASISSSASDTYYADSVKGRFTISRDNAKNTVYLQMNSLKPEDTAVYYCAARAYYRYWHGNYRHYSFDYWGQGTQVTVSS” the “polyreactivity (PSR sort gate)” value was “high polyreactivity”. With “QVQLVESGGGLVQAGGSLRLSCAASGSILVPYSMGWYRQAPGKERELVAAISWGGGSTYYADSVKGRFTISRDNAKNTVYLQMNSLKPEDTAVYYCAADFGYYDYDYWGQGTQVTVSS” the “polyreactivity (PSR sort gate)” value was “low polyreactivity”. For “QVQLVESGVGLVQAGGSLRLSSAASGSIFAHNAMGWYRQEPGKEREFVATITYSGGTTYYADSVKGRFTISRDNAKNTVYLQMNILKPEDTAVYYCAKLRYPYLFWDDSEYWGQGTQVTVSS”, the “polyreactivity (PSR sort gate)” value was “low polyreactivity”. For “QVQLVESGGGLVQAGGSLRLSCAASGSIFVSNAMGWYRQAPGKERELVAAITARDVSTYYADSVKGRFTISRDNAKNTVYLQMISLKPEDTAVYYCAGNSSTYPSDDSYVYWGQGTQVTVSS”, the “polyreactivity (PSR sort gate)” value was “low polyreactivity”. With “QVQLVESGGGLVQAGGSLRLSCAASGRIFVYNAMGWYRQAPGKERELVAAITRGGSTYYADSVKGRFTISRDNAKNTVYLQMNSLNPEDTAVYYCASDYQRNDFRWYDYWGQGTQVTVSS” the “polyreactivity (PSR sort gate)” value was “low polyreactivity”. In the case of “QVQLVESGGGLVQAGGSLRLSCAASGRTFWYYAMGWYRQAPGTERELVAAITYRGTRTYADSVKGRFTISRDNAKNTVYLQMNSQKPEDTPVYYCAKDVGYRYSGTMDYWGQGTQVTVSS”, the “polyreactivity (PSR sort gate)” value is reported as “high polyreactivity”. For “QVQLVESGGGLVQAGGSLRLSCADSGNIIWGNAIGWYRQAPGKERELVAAISRRSGSTYYADSVKGRFTISRDNAKNTVYLQMNSLKPEDTAVYYCNTAGRVGTYDYWGQGTQVTVSS”, the “polyreactivity (PSR sort gate)” value was “high polyreactivity”. In the case of “QDQHVESGGGLVQAGGSLRLSCAASGRTFYRNAMGWYRQAPGKEREFVAVISVSCGSTYYADSVKGRFTISRDNAKNTVYLQMNSLKPEDTAVYYCAKRGPVRKTAYDYCGQGTQVTVSS”, the “polyreactivity (PSR sort gate)” value is reported as “low polyreactivity”. With “QVQLVESGGGLVQAGGSLRLSCAASGSTLFGYAMGWYRQAPGKEREFVAAISRSGGRTYYADSVKGRFTISRDNAKNTVYLQMNSLKPEDTAVYYCATVRRRLSLTYDYWGQGTQVTVSS” the “polyreactivity (PSR sort gate)” value was “high polyreactivity”. In the case of “QVQLVESGGGLVQAGGSLRISCAASGFTFGPYAMGWYRQAPGKERELVAAISQSGGRTSYADSVKGRFTISRDNAKNTVYLQMNSLKPEDTAVYYCAKRAYGYRSIYRMDYWGQGTQVTVSS”, the “polyreactivity (PSR sort gate)” value is reported as “high polyreactivity”. In the case of “QVQLVESGGGLVQAGGSLRLSCAASGSTFPPNAMGWYRQAPGKERELVAVISYTSGRTYYADSVKGRFTISRDNAKNTVYLQMNSLKPEDTAVYYCNKRVLYRQRGFNYWGQGTQVTVSS”, the “polyreactivity (PSR sort gate)” value is reported as “high polyreactivity”. In the case of “QVQLVESGGGLVQAGGSLRLSCAASGRIFGGNVMGWNRQATWKERELVAFITRGTRTNYADSVKGRFTISRDNAKNTVYLQMNSLKPEDNAVFYCAADSRNSRQHTSYNSLNYWGQGTQVTVSS”, the “polyreactivity (PSR sort gate)” value is reported as “high polyreactivity”. With “QVQLVESGGGLVQAGGSLRLSCAASGFTLVKYVMGWYRQAPGKERELVAAINRSGTSTYYADSVKGRFTISRDNAKYSVYLQMNSLKPEDTAVYYCNADWYRKRNYWGQGTQVTVSS” the “polyreactivity (PSR sort gate)” value was “high polyreactivity”. With “QVQLVESGGGLVQAGGSLRLSCAASGFTFDSYAMGWYRQAPGKERELVAAITSDGSTYYADSVKGRFTISRDNAKNTVYLQMNSLKPEDTAVYYCAADGRYFRAVFRLYDYWGQGTQVTVSS” the “polyreactivity (PSR sort gate)” value was “low polyreactivity”. For “QVQLVESGGGLVQAGGSLRLSCAASGIIFGGYDMGWYRQATGKERELVAAISWSGGSTYYADSVKGRFTISRDTAKNTVYLQMNSLKPEDTAVYYCAAAYYAPTRDYYYWGQGTQVTVSS”, the “polyreactivity (PSR sort gate)” value was “low polyreactivity”. In the case of “QVQLVESGGGLVQAGGSLRLSCAASGSTFAWYTMGWYRQAPGKERELVASITSTGSTNYADSVKGRFTISRDNAKNTVYLQMNSLKPEDTAVYYCAAAVRAWYRRLYDYWGQGTQVTVSS”, the “polyreactivity (PSR sort gate)” value is reported as “high polyreactivity”. With “QDQHVESGGGLDQAGGSLRLSCAASGRIFSYNTMGWYRQAPGQERELVAASSSSGGSTYYADSVKGRFTISRDNAKNTVYLQMNSLKPEDTAVYYCNAVGRFSTRREYWGQGTQVTVSS” the “polyreactivity (PSR sort gate)” value was “high polyreactivity”. With “QVQLVESGGGLVQAGGSLRLSCAASGITFAYYTMGWYRQAPGKERELVAGISSSGGRTYYADSVKGRFTISRDNAKNTVYLQMNSLKPEDTAVYYCAARFGYRGSTYTLTYGYWGQGTQVTVSS” the “polyreactivity (PSR sort gate)” value was “high polyreactivity”. With “QVQLVESGGGLVQAGGSLRLSCAASGYTFGQYAMGWYRQAPGKEREFVAAINRSGGSTYYADSVKGRFTISRDNAKNTVYLQMNSLKPEDTAVYYCNAGYRRSSHFREHDYWGQGTQVTVSS” the “polyreactivity (PSR sort gate)” value was “high polyreactivity”. For “QVQLVESGGRLVQAGGSLRLSCAASGSIFAWSMGWYRPAPGKERELVAAISSGGSTYYADSVKGRFTISRDNAKNTVYFQMNSLKPEDTAVYYCAAGLISRFSRYYFWGQGTQVTVSS”, the “polyreactivity (PSR sort gate)” value was “high polyreactivity”. For “QVQLVESGGGLVQAGGSLRLSCAASGRTFWRNAMGWYRQAPGKERELVAVISVRGSSTSYADSVKGRFTISRDNAKNTVYLQMNSLKPEDTAVYYCNKASRTYGTGYDYWGQGTQVTVSS”, the “polyreactivity (PSR sort gate)” value was “high polyreactivity”. For “QVQLVESGGGLVQAGGSLRLSCAACGLTFGGYVMGWYRQAPGKVRELVAAISGSGGRTYYADSVKGRFTISRDNAKNTVYLQMNSLKPEDTAVYYCARPSRGPPRGYYWGKGTQVTVSS”, the “polyreactivity (PSR sort gate)” value was “high polyreactivity”. For “QVQLVESGGGLVQAGGSLRLSCAASGSTFWYYGMGWYRQAPGKERELVAAITRGGSTYYADSVKGRFTISRDNAKNTVYLQMNSLKPEDTAVYYCAARPRYRAPYGYWGQGTQVTVSS”, the “polyreactivity (PSR sort gate)” value was “high polyreactivity”. For “QVQLVESGGGLVQAGGSLRLSCAASGSTFYSYTMGWYRQAPWKERELVATISWSGSSTYYADSVKGRFTISRDNAKNTVYLQMNSLKPEDTAVYYCAAEWDESYSYRRYRHYDYWGQGTQVTVSS”, the “polyreactivity (PSR sort gate)” value was “low polyreactivity”. For “QVQLVESGGGLVQAPGSLRLSSAASGRIFNQYGMGWYRQAPGKERELVAAIRSGDSTNYADSVKGRFTISRDNAKNTVYLQMNSLKQEDSAVYYCARDRPGDYAGYYYWGKGTQVTVSS”, the “polyreactivity (PSR sort gate)” value was “low polyreactivity”. For “QVQLVESGGGLVQAGGSLRLSCAASGSIFYVYAMGWYRQAPGKERELVAAITWIDGSTYYADSVKGRFTISRDNAKNTVYLQMNSLKPEDTAVYYCAAGGYFYSFYYWGQGTQVTVSS”, the “polyreactivity (PSR sort gate)” value was “low polyreactivity”. In the case of “QVQLVESGGGLVQAGGSLRLSCAASGFTFGSYVMGWYRQAPGKERELVADISIRGGSTYYADSVKGRFTISRDNAKNTVYLQMNSLKPEDTAVYYCNADPAFYYWEGIVGGADYDYWGQGTQVTVSS”, the “polyreactivity (PSR sort gate)” value is reported as “low polyreactivity”. With “QVQLVESGGGLVQAGGSLRLSCAASGFTFKNYAMGWYRQAPGKEREFVATISSRGGSTYYADSVKGRFTISRDNAKNTVYLQMNSLKPEDPAVYYCAARYFSYGRSRQRHYYWGQGTQVTVSS” the “polyreactivity (PSR sort gate)” value was “high polyreactivity”. With “QVKLVESGGGLVQAGGSLRLSCAASGFTFGRYAMGWYRQAPGKERELVAAITRRGGSTYYADSVKGRFTISRDNAKNTVYLQMNSLKPEDTAVYYCNKVKQTRTDHDYWGQGTQVTVSS” the “polyreactivity (PSR sort gate)” value was “high polyreactivity”. With “QVQLVESGGGLVQAGGSLLLSCAASGSIFIYYTIGWYRQARGKARELVAAITRSGGDTYYADSVKGRFTISRDNAKNTVYLQMNSLKPEDTAVYYCAADSWLRYGTYEYWGQGTQVTVSS” the “polyreactivity (PSR sort gate)” value was “high polyreactivity”. In the case of “QVQLVESGGGLVQAGGSLRLSCAASGSIFYVNAMGWYRQAPGKEREFVADITWSSGGRTYYADSVKGRFTISRDNAKNTVYLQMNSLKPDDTAVYYCAAPRYYYYSYDYWGQGTQVTVSS”, the “polyreactivity (PSR sort gate)” value is reported as “high polyreactivity”. For “QVQLVESGGGLVQAGGSLRLSCAASGRTFWYSAMGWYRQAPGKEREFVAAISWSGGSTYYADSVKGRFTISRDNAKNTVYLQMNSLKPEDTAVYYCAADRYDSSQFYYWGQGTQVTVSS”, the “polyreactivity (PSR sort gate)” value was “low polyreactivity”. With “QVQLVESGGGLVQAGGSLRLSCAASGSTFYTNAMGWYRQAPGKEREFVAAISGRGSNTYYADSVKGRFTISRDNAKNTVYLQMNSLKPEDTAVYYCAADFRSEHAEDYWGQGTQVTVSS” the “polyreactivity (PSR sort gate)” value was “high polyreactivity”. With “QVQLVESGGGLVQAGGSLRLSCAASGSTFVRYAMGWYRQAPGKERELVAAISGGGSTSYADSVKGRFTISRDNAKNTVYLQMNSLKPEDTAVYFCAKAGYRSEFEYWGQGTQVTLSS” the “polyreactivity (PSR sort gate)” value was “low polyreactivity”. For “QVKLVESGRALVQAGCSLPLSCAASGRIFTRYAMGWYRQAPGKERELVAAISYGGGGTYYADSVKGSFTISRDNAKNTVYVQMNSLKPEDTAVYYCATDDPLSQINEQGMDYWGQGTQVTVSS”, the “polyreactivity (PSR sort gate)” value was “low polyreactivity”. For “QVQLEESGGGLVQAGGSLRLSCAASGSIFGYNHMGWYRQAPGKERELVATITWGGGRTRYADSVKGRFTISRVNAKNTVYLQMNSLKPEDTAVYYCAADKRSYSYVRPPRNHEDYWGQGTQVTVSS”, the “polyreactivity (PSR sort gate)” value was “low polyreactivity”. With “QVQLVESGGCLVQAGGSLRLSCAASGRTFDVYAMGWYRQAPGKERELVATIRSDGSTTYADSVKGRFTISRDNAKNTVYLQMNSLKPEDTAVYYCAADFRSGFSSSTTPVQSDWGQGTQVTVSS” the “polyreactivity (PSR sort gate)” value was “low polyreactivity”. In the case of “QVQLVESGGGLVQAGGSLRLSCAASGRIFRWYVMGWYRQAPGKERELVASISSGGITYYADSVKGRFTISRDNAKNTVYLQMNSLKPEDTAVYYCNARRQPYRTSGSEMGYWGQGTQVTVSS”, the “polyreactivity (PSR sort gate)” value is reported as “high polyreactivity”. With “QVQLVESGGGLVQAGVILRLSCAASGRIITTYAMGRYRQAPGKERELVAAISARGGRTYYADSVKGRFTISRDNAKNTVYLQMNSLKPEDTAVYYCAAVSIQAYTRRQYDWGQGTQVTVSS” the “polyreactivity (PSR sort gate)” value was “high polyreactivity”. With “QVQLVESGGGLVQAGGSLRLSCAASGSTFRRNAMGWYRPAPGKERELVAAITSTDSTYYADSVKGRFTISRDNAKNTVYLQMNSLKPEDTAVYYCAKGYWWGGQMGYWGQGTQVTVSS” the “polyreactivity (PSR sort gate)” value was “low polyreactivity”. With “QVQLVESGGGIVQAGGSLRLSCAASGSTSGSYGMGWYRQAPGKERELVAAIRWSGGRTYYADSVKGRFTISRDKAKNTVYLQMNSLKPEDTAVYFCAKFRYTVSGYNYWGQRTQVTVSS” the “polyreactivity (PSR sort gate)” value was “high polyreactivity”. With “QVQLVESGGGLVQAGGSLRLSCAASGFTFGPYDMGWYRQAPGKERELVAVIIGGDSTNYADSVKGRFTISRDNAKYTVYLQMNSLKPEDTAVYYCAADYIDRVGWMDYWGQGTQVTVSS” the “polyreactivity (PSR sort gate)” value was “low polyreactivity”.
